# Assay results published in publication PMC5059666 (2016).
# T1: mouse IgM-Fc pentamer (FLAG-IgM-Fc with IgJ-Myc) (mouse, UniProt P01872 1-454; P01592 22-159)
# T1 chain 1: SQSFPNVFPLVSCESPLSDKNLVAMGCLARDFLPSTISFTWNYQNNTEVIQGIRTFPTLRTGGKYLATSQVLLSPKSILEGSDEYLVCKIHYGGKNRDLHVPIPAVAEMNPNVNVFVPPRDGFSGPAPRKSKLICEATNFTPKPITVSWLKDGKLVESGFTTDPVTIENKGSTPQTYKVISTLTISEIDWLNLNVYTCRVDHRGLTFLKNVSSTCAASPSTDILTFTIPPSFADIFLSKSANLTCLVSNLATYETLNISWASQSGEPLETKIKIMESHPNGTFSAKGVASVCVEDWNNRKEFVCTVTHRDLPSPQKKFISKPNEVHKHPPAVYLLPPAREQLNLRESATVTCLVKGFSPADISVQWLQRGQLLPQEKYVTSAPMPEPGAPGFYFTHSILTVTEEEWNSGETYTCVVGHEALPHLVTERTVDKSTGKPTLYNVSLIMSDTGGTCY
# T1 chain 2: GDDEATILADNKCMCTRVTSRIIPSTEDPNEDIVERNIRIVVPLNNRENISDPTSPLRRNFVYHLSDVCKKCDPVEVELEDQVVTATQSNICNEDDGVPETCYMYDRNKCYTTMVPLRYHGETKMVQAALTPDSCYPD
# How the values were obtained:
# [1] = biological target: feline IgM-Fc pentamer (FLAG-tagged feline IgM-Fc with Myc-tagged feline IgJ); test: immunoblotting (non-reducing conditions) of IgM-Fc bound AIM, quantified using NIH ImageJ; settings: supernatant after a co-culture of feline Fc-expressing HEK293T cells and cells expressing wild-type, chimeric, or mutant feline AIM; parent: est. 1; read off a plot
# [2] = biological target: feline IgM-Fc pentamer (FLAG-tagged feline IgM-Fc with Myc-tagged feline IgJ) (cat); test: SPR; Biacore T100, 25 °C; IgM-Fc pentamers amine-coupled on a CM5 chip (1000 RU), BSA reference cell; AIM as analyte 50 nM to 5 μM in D-PBS(-) pH 7.4, single-cycle kinetics, heterogeneous ligand model
# [3] = biological target: T1, mouse IgM-Fc pentamer (FLAG-IgM-Fc with …); test: SPR
# [4] = biological target: T1, mouse IgM-Fc pentamer (FLAG-IgM-Fc with …); test: SPR
# [5] = biological target: mouse IgM-Fc pentamer (FLAG-IgM-Fc with IgJ-Myc) (mouse) (UniProt P01872); test: SPR; Biacore T100, 25 °C; IgM-Fc pentamers amine-coupled on a CM5 chip (1000 RU), BSA reference cell; AIM as analyte 50 nM to 5 μM in D-PBS(-) pH 7.4, single-cycle kinetics, heterogeneous ligand model
molecule,measurement,setting,value
recombinant feline AIM (3-SRCR) (from UniProt A0A1E1GEY0) R299K; R300I; R338K,ratio to parent,[1],0.58
recombinant feline AIM (4-SRCR) (from UniProt A0A1E1GEY0 20-355) (natural protein),koff,[2],4.38e-05 s⁻¹
same,kon,[2],9.52 M⁻¹ s⁻¹
recombinant feline AIM (3-SRCR) (natural protein) SFSRVRLVGGDHRCEGRVELQQDDEWVTVCDDYWNMDSVAVLCRELGCGAARKTMSGTVYGPVTPKDQKVFIHLFRCNGIEESLSQCEREDAIGCSHVEDAGAVCEPIYTGPGILGPESVRLADGPGRCQGRVEVKFRGEWSSVCQAGWSFAAAKVVCRQLGCGRATLTRRGCNKATQGQGAIWQRKASCSGQEVSLQDCLSEVWEHNCTHNEDVWVECEDPFALKLVGGRSHCEGRLEVLHKGEWGSVCDDGWGQDADRVVCRQLGCGQPLSPPVKVRRRFGPGVGRIWLDDVKCSGKEPSLEQCLHRSWGYHNCNHREDVAVVCEEQQSGLPDA,Kd,[2],5.97 nM
same,koff,[2],5.65e-05 s⁻¹
same,kon,[2],9460 M⁻¹ s⁻¹
same,Kd,[3],14.6 nM
same,koff,[4],0.000106 s⁻¹
recombinant mouse AIM (natural protein) ESPTKVQLVGGAHRCEGRVEVEHNGQWGTVCDDGWDRRDVAVVCRELNCGAVIQTPRGASYQPPASEQRVLIQGVDCNGTEDTLAQCELNYDVFDCSHEEDAGAQCENPDSDLLFIPEDVRLVDGPGHCQGRVEVLHQSQWSTVCKAGWNLQVSKVVCRQLGCGRALLTYGSCNKNTQGKGPIWMGKMSCSGQEANLRSCLLSRLENNCTHGEDTWMECEDPFELKLVGGDTPCSGRLEVLHKGSWGSVCDDNWGEKEDQVVCKQLGCGKSLHPSPKTRKIYGPGAGRIWLDDVNCSGKEQSLEFCRHRLWGYHDCTHKEDVEVICTDFDV,Kd,[5],5820 nM
same,koff,[5],0.0223 s⁻¹
same,kon,[5],3830 M⁻¹ s⁻¹
